Assay results taken from the Immune Epitope Database (IEDB).

Columns and labels:
[1] = target: HLA-A*02:01; assay: IEDB peptide-MHC binding, cellular MHC/competitive/fluorescence; ≥ and ≤ were set here for values at or beyond the usual limits of such assays
[2] = target: HLA-A*02:06; assay: as above
[3] = target: HLA-A*68:02; assay: IEDB peptide-MHC binding, purified MHC/competitive/radioactivity; ≥ and ≤ were set here for values at or beyond the usual limits of such assays
[4] = target: HLA-A*02:03; assay: as above
[5] = target: HLA-A*02:02; assay: as above
[6] = target: HLA-A*02:01; assay: as above
[7] = source organism: Vaccinia virus WR
[8] = source organism: Influenza A virus
[9] = source organism: Mammarenavirus lassaense
[10] = source organism: Mammarenavirus choriomeningitidis
[11] = source organism: Mammarenavirus whitewaterense

Sequence	IC50 [1, 7]	IC50 [2, 7]	IC50 [3, 7]	IC50 [4, 7]	IC50 [5, 7]	IC50 [6, 7]	other results
MTSTRTIIL	6.47 µM	6.79 µM	507 nM	840 nM	1340 nM		
AVATTHSWI							IC50 [1, 8]: 32.9 µM; IC50 [2, 8]: 28 µM; IC50 [3, 8]: 876 nM; IC50 [4, 8]: 753 nM; IC50 [5, 8]: 440 nM
ELKDLLNVT	51.6 µM	38.5 µM	2780 nM	209 nM	1540 nM		
RVKQWVMDTL	21.4 µM	27.8 µM	155 nM	689 nM	3480 nM		
LNQAVNNLV							IC50 [1, 9]: 7.96 µM; IC50 [2, 9]: 13.6 µM; IC50 [3, 9]: 4880 nM; IC50 [4, 9]: 3350 nM; IC50 [5, 9]: 511 nM
VISTIANSNI	7.8 µM	5.16 µM	788 nM	845 nM	282 nM		
TMKAIEKDRL	17.5 µM	≥ 70 µM	1570 nM	1060 nM	171 nM		
AAKTPVIVV	9.43 µM	25.3 µM	4280 nM	1630 nM	1360 nM		
AAAKTPVIV	34.7 µM	67.3 µM	2020 nM	1420 nM	1900 nM		
LNQTVYSLV							IC50 [1, 10]: 9.25 µM; IC50 [2, 10]: 5.1 µM; IC50 [3, 10]: 262 nM; IC50 [4, 10]: 1510 nM; IC50 [5, 10]: 3330 nM
IVNNFITKEI	13.7 µM	14.2 µM	1320 nM	192 nM	1470 nM		
DLNRMPTDML	17.3 µM	47.4 µM	3940 nM	2190 nM	1250 nM		
DTIAHINTL	10.1 µM	11.1 µM	1240 nM	233 nM	747 nM		
MLHNPTSET	13.7 µM	≥ 70 µM	1570 nM	184 nM	4210 nM		
LAEHISDSI	6.05 µM	19.3 µM	428 nM	731 nM	45 nM		
LDFAKVASV							IC50 [2, 11]: 10.6 µM; IC50 [3, 11]: 296 nM; IC50 [4, 11]: 453 nM; IC50 [6, 11]: 4740 nM; IC50 [5, 11]: 61 nM
DIMTSTRTI		21.8 µM	78 nM	79 nM	3450 nM	3460 nM	
DTGKKELAL		14.2 µM	3410 nM	156 nM	116 nM	3390 nM	
DLFMSHVKSV		19.8 µM	1940 nM	42 nM	3380 nM	2490 nM	
NTNQGNILM		5.94 µM	664 nM	1150 nM	1700 nM	4580 nM	
SLCPTKKLV		11.9 µM	1040 nM	2660 nM	3160 nM	2660 nM	
ELWARISSSL		9.3 µM	22 nM	324 nM	175 nM	1320 nM	
DLNAVTTNNL		7.52 µM	3370 nM	1630 nM	1830 nM	1610 nM	
TLFYCDERDA		19.5 µM	4920 nM	2140 nM	271 nM	238 nM	
MLKLFTHDIM		20.3 µM	2000 nM	93 nM	85 nM	1380 nM	
ELLEMKYAL		6.02 µM	1520 nM	863 nM	952 nM	281 nM	
YVEHDPRLV		22.6 µM	1930 nM	711 nM	1180 nM	4740 nM	
EIMDKEQLL		26.4 µM	291 nM	427 nM	183 nM	3960 nM	
FIQWTGGNI		5.91 µM	442 nM	55 nM	683 nM	525 nM	
